Test results published in paper PMC5003816.

Target: ubiquitin conjugates (MEFs)
Test: UBQLN2 IP and western blot quantification (primary MEFs)
Details: n = 3; read off a plot

ratio to parent: 1.4
Substance: UBQLN2 (mouse, endogenous, wild type) (from UniProt Q9QZM0) mP520T
